Laboratory results from PMC3897919, “ERAD and protein import defects in a sec61 mutant lacking ER-lumenal loop 7” (BMC Cell Biology, 2013).

Biological target: T1, Sec61∆L7p (S. cerevisiae, UniProt P32915 1-480, amino acids 305–371 of wildtype Sec61p had been replaced by two amino acids …)
T1 construct: Sec61p, S. cerevisiae, lacking ER-lumenal loop 7 and the lumenal ends of TMDs 7 and 8; also called Sec61ΔL7p; Sec∆L7p; source: yeast KRY461 with sec61ΔL7pRS315 as sole copy of SEC61, in microsomes; solubilized in Triton-X100 or digitonin, or total protein reconstituted into proteoliposomes
T1 sequence (looked up): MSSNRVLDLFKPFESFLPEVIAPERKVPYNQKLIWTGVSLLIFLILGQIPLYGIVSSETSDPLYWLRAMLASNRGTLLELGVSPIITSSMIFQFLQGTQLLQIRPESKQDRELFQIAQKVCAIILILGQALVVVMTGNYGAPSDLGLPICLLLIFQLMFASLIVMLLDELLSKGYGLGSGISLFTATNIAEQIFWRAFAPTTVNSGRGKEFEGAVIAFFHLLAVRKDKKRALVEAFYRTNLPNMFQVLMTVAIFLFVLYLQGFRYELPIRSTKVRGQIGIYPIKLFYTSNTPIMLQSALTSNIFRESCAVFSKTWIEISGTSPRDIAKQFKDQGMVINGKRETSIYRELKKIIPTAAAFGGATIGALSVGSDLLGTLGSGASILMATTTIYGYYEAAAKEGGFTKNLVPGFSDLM
Test: cross-linking; intact microsomes in B88, pH 7.9, treated with DSS for 20 min at 20°C, quenched with ammonium acetate; SDS-PAGE and immunoblotting with anti-Sec61p or anti-Sss1p antibodies
Settings: partners not purified

fold weaker crosslink than in wildtype membranes: ≥ 5 fold
B1: Sss1p (natural protein, UniProt P35179 1-80, looked up)
chain: MARASEKGEEKKQSNNQVEKLVEAPVEFVREGTQFLAKCKKPDLKEYTKIVKAVGIGFIAVGIIGYAIKLIHIPIRYVIV
notes: Sss1p, small subunit of the trimeric Sec61 complex, yeast; source: endogenous, yeast microsomes
